The text below walks through data of PMC10665551.

A word on the stoichiometry N: it is the number of molecules, sites or subunits per partner or assembly.

Assay [1] deals with native Oo-ASP-1 (activation-associated secreted protein 1 of Ostertagia ostertagi) (Ostertagia ostertagi). The assay can be described thus: reducing and non-reducing SDS-PAGE + LC-MS of tryptic peptides; denaturing SDS-PAGE with and without β-mercaptoethanol; 1D and 2D LC-MS of reduced (DTT/IAA) and non-reduced tryptic digests to map intra- and intermolecular disulphide bridges; disulphide-linked dimer.

Assay [2] concerns the target Pichia pastoris recombinant Oo-ASP-1 (Ostertagia ostertagi). The assay is described as above.

As for “native Oo-ASP-1 (activation-associated secreted protein 1 of Ostertagia ostertagi) (natural protein)”, the stoichiometry N in assay [1] amounted to 2.
On to “Pichia pastoris recombinant Oo-ASP-1 (natural protein)”, for which the stoichiometry N in assay [2] amounted to 2.
